Earlier results on one molecule are cited in paper PMC12525431, “Hsp70 Peptides Induce TREM-1-Dependent and TREM-1-Independent Activation of Cytotoxic Lymphocytes” (International Journal of Molecular Sciences, 2025).

This data set has as its target T1, TREM-1 (Homo sapiens, UniProt Q9NP99).
T1 construct: causes dissociation of the TREM-1 exocellular domain; made in house
The conditions noted are these: ref [30],[31],[32],[33].

T1 sequence (Q9NP99 21-205 limits assumed): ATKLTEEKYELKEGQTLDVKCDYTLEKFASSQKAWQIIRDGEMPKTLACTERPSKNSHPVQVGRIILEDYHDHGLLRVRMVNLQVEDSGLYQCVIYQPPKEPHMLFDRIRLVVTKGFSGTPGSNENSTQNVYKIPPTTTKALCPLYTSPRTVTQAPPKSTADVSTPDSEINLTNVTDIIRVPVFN

B1: eCIRP: RNA-binding protein (eCIRP), TREM-1 ligand (protein, UniProt Q14011 1-172, looked up)
Cold-inducible RNA-binding …: MASDEGKLFVGGLSFDTNEQSLEQVFSKYGQISEVVVVKDRETQRSRGFGFVTFENIDDAKDAMMAMNGKSVDGRQIRVDQAGKSSDNRSRGYRGGSAGGRGFFRGGRGRGRGFSRGGGDRGYGGNRFESRSGGYGGSRDYYSSRSQSGGYSDRSSGGSYRDSYDSYATHNE
In the case of B1, the TREM-1 ligand result is listed as “TREM-1 ligands”.
